# Measured values reported in US20180311371A1 (Hoffmann-La Roche, published 2018).
# B1: prior art anti-TPBG antibody H8, Fab fragment (Fab, V domains shown)
# VH: EVQLQQSGPDLVKPGASVKISCKASGYSFTGYYMHWVKQSHGKSLEWIGRINPNNGVTLYNQKFKDKAILTVDKSSTTAYMELRSLTSEDSAVYYCARSTMITNYVMDYWGQVTSVTVSS
# VL: SIVMTQTPTFLLVSAGDRVTITCKASQSVSNDVAWYQQKPGQSPTLLISYTSSRYAGVPDRFIGSGYGTDFTFTISTLQAEDLAVYFCQQDYNSPPTFGGGTKLEIKR
# notes: also called Fab(H8); Fab1
# B2: anti-TPBG antibody 091 (mAb) (antibody, V domains shown)
# VH: EVHLLESGGGLVHPGGSLRLSCAASGFTFRSDAMHWVRQAPGKGLEWVSGVSGSGGSPYYADSVKGRFTISRDDSKTTLYLQMNSLRAEDTAVYYCATGGSIAGSYYYYPMDVWGQGTTVTVSS
# VL: DIQMTQSPSSLSASVGDRVTITCQASQDISNYLNWYQQKPGKAPKLLIYAASTLQIGVPSRFSGSGSGTDFTFTISSLQPEDFATYYCQQANSFPLTFGGGTKVEIK
# B3: anti-TPBG antibody 097 (mAb) (antibody, V domains shown)
# VH: EVQLLESGGGLAQPGGSLRLSCAASGFTFNNDAMTWVRQAPGKGLEWVSAISGSGGSTYYADSVKGRFTISRDNSKNTLYLQMNSLRAEDTAVYYCAKGGSWGDWYYYFYPMDVWGQGTTVTVSS
# VL: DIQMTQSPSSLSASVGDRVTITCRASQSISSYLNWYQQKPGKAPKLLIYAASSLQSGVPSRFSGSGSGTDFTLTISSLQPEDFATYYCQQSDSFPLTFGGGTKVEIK
# Experiments:
# [1] = target: T1, minipig TPBG, full length, cell surface expressed on CHO-K1 cells (minipig); test: cell-based or functional assay
# T1 chain: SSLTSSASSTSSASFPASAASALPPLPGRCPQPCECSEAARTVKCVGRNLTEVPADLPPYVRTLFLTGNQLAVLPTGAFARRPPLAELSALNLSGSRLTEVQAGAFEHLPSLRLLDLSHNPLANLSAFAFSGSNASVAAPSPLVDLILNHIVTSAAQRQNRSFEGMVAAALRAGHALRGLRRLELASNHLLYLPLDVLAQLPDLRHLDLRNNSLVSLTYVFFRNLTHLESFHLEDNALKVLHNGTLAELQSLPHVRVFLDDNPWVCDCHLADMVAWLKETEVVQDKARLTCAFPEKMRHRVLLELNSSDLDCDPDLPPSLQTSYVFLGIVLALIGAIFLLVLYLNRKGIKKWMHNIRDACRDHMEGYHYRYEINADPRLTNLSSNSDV
# [2] = target: T2, human TPBG (trophoblast glycoprotein), full length, cell surface expressed (human, UniProt Q13641 32-420); test: cell-based or functional assay
# T2 sequence: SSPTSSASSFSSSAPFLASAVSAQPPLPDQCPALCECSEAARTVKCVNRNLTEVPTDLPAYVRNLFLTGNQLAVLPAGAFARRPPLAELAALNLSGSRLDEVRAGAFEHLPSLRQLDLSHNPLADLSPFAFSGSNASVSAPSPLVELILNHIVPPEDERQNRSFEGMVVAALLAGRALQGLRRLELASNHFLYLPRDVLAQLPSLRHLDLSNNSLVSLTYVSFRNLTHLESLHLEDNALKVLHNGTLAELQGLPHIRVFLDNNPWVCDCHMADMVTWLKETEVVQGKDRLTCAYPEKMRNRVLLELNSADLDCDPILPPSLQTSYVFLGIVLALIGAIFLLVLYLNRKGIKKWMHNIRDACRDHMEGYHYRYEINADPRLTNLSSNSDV
# [3] = target: T2, human TPBG (trophoblast glycoprotein), …; test: cell-based or functional assay; remark: listed apart in the source
# [4] = target: T1, minipig TPBG, full length, cell surface …; test: cell-based or functional assay
# [5] = target: T2, human TPBG (trophoblast glycoprotein), …; test: cell-based or functional assay; remark: listed apart in the source
# [6] = target: T2, human TPBG (trophoblast glycoprotein), …; test: cell-based or functional assay; remark: listed apart in the source
# [7] = target: T2, human TPBG (trophoblast glycoprotein), …; test: cell-based or functional assay; remark: listed apart in the source
# [8] = target: T3, huTPBG (recombinant human TPBG immobilised on the Biacore chip) (human, UniProt Q13641 32-355, limits assumed); test: SPR Biacore T200; huTPBG amine-coupled, Fab injected
# T3 construct: also called human TPBG antigen
# T3 sequence: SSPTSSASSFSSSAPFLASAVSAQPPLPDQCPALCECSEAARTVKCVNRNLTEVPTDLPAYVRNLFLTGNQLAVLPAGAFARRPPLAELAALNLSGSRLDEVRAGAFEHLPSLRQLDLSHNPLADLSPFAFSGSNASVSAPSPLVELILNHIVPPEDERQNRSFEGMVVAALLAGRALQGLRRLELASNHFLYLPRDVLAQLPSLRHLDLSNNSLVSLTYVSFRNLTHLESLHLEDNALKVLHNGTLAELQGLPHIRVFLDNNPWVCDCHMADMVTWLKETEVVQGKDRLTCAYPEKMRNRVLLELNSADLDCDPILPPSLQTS
# [9] = target: T2, human TPBG (trophoblast glycoprotein), …; test: flow cytometry on SW620 clone 4 cells; ratio of MFI; replicate 1
# [10] = target: T2, human TPBG (trophoblast glycoprotein), …; test: flow cytometry on SW620 clone 4 cells; ratio of MFI; replicate 2
# [11] = target: T4, recombinant extracellular domain of minipig TPBG (Biacore analyte) (minipig); test: SPR (Biacore T200): Fab captured on anti-huFab antibody, minipig TPBG injected for 120 s at 4.9-400 nM, dissociation 660 s
# T4 chain: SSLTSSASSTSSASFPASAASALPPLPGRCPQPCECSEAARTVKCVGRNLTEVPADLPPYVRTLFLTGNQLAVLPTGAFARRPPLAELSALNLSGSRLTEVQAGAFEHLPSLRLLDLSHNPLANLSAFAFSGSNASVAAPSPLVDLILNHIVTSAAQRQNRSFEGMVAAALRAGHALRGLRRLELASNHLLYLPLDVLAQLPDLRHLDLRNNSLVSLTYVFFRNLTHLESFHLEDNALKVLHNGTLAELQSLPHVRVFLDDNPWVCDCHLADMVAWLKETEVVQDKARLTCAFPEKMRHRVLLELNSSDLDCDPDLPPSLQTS
# [12] = target: T1, minipig TPBG, full length, cell surface …; test: flow cytometry on CHO cells stably expressing minipig TPBG; Fab dilution series 0.01-20 µg/ml, PE-labelled anti-kappa secondary antibody
# [13] = target: T5, murine TPBG extracellular domain, huIgG1-Fc-His6 (murine); test: ELISA; Fc-TPBG coated; (-) = no binding
# T5 construct: also called Fc-TPBG (mo)
# [14] = target: T6, minipig TPBG extracellular domain, huIgG1-Fc-His (minipig); test: ELISA; Fc-TPBG coated; mAb titrated from 1 µg/ml
# T6 construct: also called Fc-TPBG (mp)
# [15] = target: T7, human TPBG extracellular domain, huIgG1-Fc-His6 (human); test: ELISA; Fc-TPBG coated; mAb titrated from 1 µg/ml
# T7 construct: also called Fc-TPBG (hu)
# [16] = target: T8, rat TPBG extracellular domain, huIgG1-Fc-His6 (rat); test: ELISA; Fc-TPBG coated; mAb titrated from 1 µg/ml
# T8 construct: also called Fc-TPBG (rt)
# [17] = target: T9, cynomolgus TPBG extracellular domain, huIgG1-Fc-His6 (cynomolgus); test: ELISA; Fc-TPBG coated; (-) = no binding
# T9 construct: also called Fc-TPBG (cy)
# [18] = target: T8, rat TPBG extracellular domain, …; test: ELISA; Fc-TPBG coated; (-) = no binding
# T5 sequence (chain, as listed by the source limits assumed): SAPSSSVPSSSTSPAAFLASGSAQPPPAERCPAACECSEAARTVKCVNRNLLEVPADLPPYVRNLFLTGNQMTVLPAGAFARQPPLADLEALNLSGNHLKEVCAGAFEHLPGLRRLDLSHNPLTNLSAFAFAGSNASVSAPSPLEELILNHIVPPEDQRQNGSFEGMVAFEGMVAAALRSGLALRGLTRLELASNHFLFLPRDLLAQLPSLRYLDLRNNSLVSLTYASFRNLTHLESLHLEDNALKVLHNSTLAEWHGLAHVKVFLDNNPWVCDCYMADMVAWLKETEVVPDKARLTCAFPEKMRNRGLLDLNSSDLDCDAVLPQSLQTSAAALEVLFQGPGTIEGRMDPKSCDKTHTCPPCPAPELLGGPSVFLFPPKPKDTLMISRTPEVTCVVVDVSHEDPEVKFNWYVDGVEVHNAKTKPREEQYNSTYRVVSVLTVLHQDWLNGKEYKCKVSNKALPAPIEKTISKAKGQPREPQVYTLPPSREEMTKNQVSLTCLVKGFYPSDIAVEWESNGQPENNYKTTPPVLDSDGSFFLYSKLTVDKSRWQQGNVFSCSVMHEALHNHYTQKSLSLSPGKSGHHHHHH
# T8 sequence (chain, as listed by the source limits assumed): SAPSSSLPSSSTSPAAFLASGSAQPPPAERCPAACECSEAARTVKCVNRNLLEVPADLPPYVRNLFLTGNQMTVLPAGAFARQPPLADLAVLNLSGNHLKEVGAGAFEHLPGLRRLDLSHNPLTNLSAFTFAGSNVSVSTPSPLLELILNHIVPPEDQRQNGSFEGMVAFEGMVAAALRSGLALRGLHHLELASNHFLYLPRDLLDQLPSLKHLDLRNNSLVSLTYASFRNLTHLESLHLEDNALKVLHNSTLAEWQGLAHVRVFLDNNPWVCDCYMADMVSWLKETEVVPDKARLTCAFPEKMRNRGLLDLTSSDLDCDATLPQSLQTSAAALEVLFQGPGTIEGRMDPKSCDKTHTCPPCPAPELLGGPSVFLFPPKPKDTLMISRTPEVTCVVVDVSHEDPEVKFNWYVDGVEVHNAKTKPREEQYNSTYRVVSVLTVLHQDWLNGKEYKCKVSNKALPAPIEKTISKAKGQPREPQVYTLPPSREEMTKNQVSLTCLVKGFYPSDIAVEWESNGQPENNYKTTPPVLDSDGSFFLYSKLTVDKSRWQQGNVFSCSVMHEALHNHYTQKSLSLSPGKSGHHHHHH
# T9 sequence (chain, as listed by the source limits assumed): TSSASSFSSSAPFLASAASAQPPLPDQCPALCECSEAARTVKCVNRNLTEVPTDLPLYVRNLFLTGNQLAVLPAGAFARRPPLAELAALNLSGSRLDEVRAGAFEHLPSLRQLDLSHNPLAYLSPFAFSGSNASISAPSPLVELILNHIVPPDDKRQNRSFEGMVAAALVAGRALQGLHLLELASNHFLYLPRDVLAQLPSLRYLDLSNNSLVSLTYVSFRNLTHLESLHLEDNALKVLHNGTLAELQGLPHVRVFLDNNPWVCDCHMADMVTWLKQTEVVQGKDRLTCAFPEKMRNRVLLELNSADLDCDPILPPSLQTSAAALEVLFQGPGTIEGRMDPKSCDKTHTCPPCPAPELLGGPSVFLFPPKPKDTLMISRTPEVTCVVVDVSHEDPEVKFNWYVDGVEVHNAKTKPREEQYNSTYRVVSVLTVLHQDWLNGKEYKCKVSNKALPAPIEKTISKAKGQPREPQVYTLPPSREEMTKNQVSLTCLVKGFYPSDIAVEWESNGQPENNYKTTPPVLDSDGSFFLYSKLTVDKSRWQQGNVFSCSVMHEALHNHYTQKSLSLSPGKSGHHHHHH
binder,measurement,setting,value
B1,"fold lower potency on minipig TPBG cells than on human TPBG cells, sandwich construct",[1],~100 fold
same,"internalization after 1.0 h, MCF7 cells",[2],61%
same,"internalization after 2.0 h, MCF7 cells",[2],79%
same,"EC50 cytotoxicity, Fab + anti-kappa-Fab-PE, CHO-K1/human TPBG, replicate 1",[3],0.41 nM
same,"EC50 cytotoxicity, Fab + anti-kappa-Fab-PE, CHO-K1/human TPBG, replicate 2",[3],0.52 nM
same,"EC50 cytotoxicity, Fab + anti-kappa-Fab-PE, CHO-K1/minipig TPBG, replicate 1",[4],48 nM
same,"EC50 cytotoxicity, Fab + anti-kappa-Fab-PE, CHO-K1/minipig TPBG, replicate 2",[4],45.9 nM
same,"EC50 cytotoxicity, Fab-PE sandwich construct, MCF7",[5],1.25 nM
same,"EC50 cytotoxicity, Fab-PE sandwich construct, MCF7 (comparison with A1-A3)",[6],1.85 nM
same,"EC50 cytotoxicity, Fab-PE sandwich construct, H1975, replicate 1",[7],0.698 nM
same,"EC50 cytotoxicity, Fab-PE sandwich construct, H1975, replicate 2",[7],0.451 nM
same,"EC50 cytotoxicity, Fab-PE sandwich construct, H1975, replicate 3",[7],0.656 nM
same,Kd,[8],0.00158 nM
same,koff,[8],2.17e-07 s⁻¹
same,kon,[8],137000 M⁻¹ s⁻¹
same,Fold change pH 7.2 vs pH 5.5,[9],4.2 fold
same,Fold change pH 7.2 vs pH 5.5,[10],6.8 fold
same,binding result,[11],no binding
same,binding result,[12],no binding (tested: 20 µg/ml)
B2,binding result,[13],no binding (tested: titrated from 1 µg/ml)
same,binding result,[14],binds
same,binding result,[15],binds
same,binding result,[16],binds
B3,binding result,[13],no binding (tested: titrated from 1 µg/ml)
same,binding result,[17],no binding (tested: titrated from 1 µg/ml)
same,binding result,[18],no binding (tested: titrated from 1 µg/ml)
same,binding result,[14],binds
same,binding result,[15],binds
